Experimental data published in the DeepSol protein solubility set.

Experiment: soluble on expression in E. coli; label from the status in PepcDB or PDB records

Sequence	soluble on expression in E. coli
MLHITAAKARAGGQIGGVFCLAQCSLNVLVSGMQTQPLPPLISARPVGRGARSNDAGRFEPLERVAEHDGWEREEELPPLRTQVSLETARSLISYNRSPDLPFDRSINPYRGCEHGCSYCFARPSHAYLGLSPGLDFETRLVARPNAAEVLRAELSARRYKVAPIAIGTNTDPYQPLEKTHAITRACLQVLAEFNHPVAIVTRGALIERDLDILAPMAARGLVRVGISLTTLDAALARRMEPRAPSPKRRLAMIRALNGAGVPVRVMTSPLIPGLTDHELESLLAAGAEAGADTASWIMLRLPREVSPLWQEWLAEHAPARAAKVMARLREMHGGRDYDPRWGHRMRGEGEYAQMIAKRFRAACKRIGLAQEAPALRCDLFRVPPQPGDQLSLF	not soluble
MLHIVKHLEKLPLLSAYLLDGDVVLLTENAVYAAAVHSPYQASINDQNLWLVLYEDLHARGWLEKCDPRISVVTMSDFVDLTVTHDKSITW	not soluble
MLIEERLAKIQKIVNEQKSISMEALAEQVSVSKDTIRRDLIRLEKEGHLKRTHGGAISVQSEATIYDYAQRIVKHPEKKQAIAQKVWANIPKQASIFFDSSTTVEAAIRAMENSPIHAITNSLSHALLLAQMDQTKITVLPGQLHKQQLFLFGAETVAKVGEFAPDYTLLGVFALSEQGLFIHTEEEGQVKRRMIQQGKQVIALADQTKLNKTGLFKICELTEIDCLVTDTRPDEKFCEQLAQAGVTLIVADELEHHHHHH	soluble
MLIEGANSHGSGILLQRHGNTYVILTAYHVIEKGGQYTVKTVDGQRYAVRPSSIRRLPSVDLATLEIESNRDYTLATLGNSGEAVEGMPVFVAGFPAQEASVLGGIYQFTEGRLTANASRPIQDGYALVYSNPTLPGMSGGPVLDENGRLIGIHGSADIASTLVQEGSGASTVFVKRGFNLGIPIHTYLGLATPSRQTTVLPALASMKAADYFLAAEVAFRRKNFAAAIENYSQAIARNPNYSEAYLGRAVAQIFALVPNQDFDQLGEELGTKYLSRLTQGNPLLKDAFPPNPPTPLLETFMRTMAERPGTIQPDIAKAIALNPQYTEAYGVSSFLNLLLGNFGNAIAESERALALRPNNSDLQMIHSLALFLSGDFRRSIAVFDRLITANPQNTDYHLLRGVAAFMMGDYALSRPSWTALTQLTPRNPMPFALRGVTYLLEENFKASLPDLRQAAELYRQQGDMQSYNQMMQAIRQIESRLEHHHHHH	not soluble
MLIILLLTVLTVYLVYELYWKRRNFPPGPCPLPVFGNLLSIANPPPGYEAFERWTKKYGDIYTFWIGNTPHIMINTWDKIKETYIRDAETYTNKVRLPALDLFRGGEYGIIDSNGATWREHRRFALSTMRDFGLGKNLMQENILMEVQDVFARLDAKLGSETDIPEVFDHAVANVVNQLLFGYRFVGPKESEYQELKRIIEAPTDLFGKPHMFLAMNIPVIAKLMPEFMYEGPFKDFRDTAFAFFNKQIEAHRQEVDLNDLNSESTDFVETFLKEQKRRESEGDSETFSNVQLSNVCMDLWFAGLNTTTNTITWAISYILHHPEVQDKVHEEMDKVIGSDRLITTADKNDLPYFNAFINEAQRGINIVPLNLQHATTRDTVINGFKIPKGTGVVAQISTVMNNEEVFPDPHTFNPDRFIDEHGKLKRVEELAPFSVGKRSCPGEGLARMELFLFIANFLNRYKIYPSKEGPPSMDKSNGALIAPRLFSATLKRRS	not soluble
MLIPARMSEAEEQRWVTVMLDKLAAQESKRRLGDAELAERAERLSLQYFDGRARPTAVRWVTNQNTRWGSCTPSEGSIRLSHRLQGMPEYVVDYVLLHELAHLLVPGHGPRFWRLLEAYPRTERARGYLEGVVAADRLPHQPAPGAELEHHHHHH	not soluble
MLIVGINGSPKKEGNTKYLINTVLEEAKSQGVETMVLEVGELLNSVKNPFCVVCSNPCSSICYKGTKLEEAYEILKKADAIVMGSPVYFGSVSAQLKAFFDKTRKLRSEKALYNKFACGVTVGGARFGGQETTMKALHDIMLVHGMTIVGDGYVGDDCGHHGVCAQQPADKDEFAIKRAKILGRRLVDVCKKAGA	not soluble
MLKADYIPYTLKFKEPAGTSRGVLHTKQTYFVRVYDDTFPSRAGYGEAALFRGLSAEEGADYEERLAEVCNGVCGFTPDAWQAYPSLCFGMETALADFEGGGLLFPSAFTSGEAGIPINGLI	not soluble
MLKFRTVHGGLRLLGIRRTSTAPAASPNVRRLEYKPIKKVMVANRGEIAIRVFRACTELGIRTVAIYSEQDTGQMHRQKADEAYLIGRGLAPVQAYLHIPDIIKVAKENNVDAVHPGYGFLSERADFAQACQDAGVRFIGPSPEVVRKMGDKVEARAIAIAAGVPVVPGTDAPITSLHEAHEFSNTYGFPIIFKAAYGGGGRGMRVVHSYEELEENYTRAYSEALAAFGNGALFVEKFIEKPRHIEVQILGDQYGNILHLYERDCSIQRRHQKVVEIAPAAHLDPQLRTRLTSDSVKLAKQVGYENAGTVEFLVDRHGKHYFIEVNSRLQVEHTVTEEITDVDLVHAQIHVAEGRSLPDLGLRQENIRINGCAIQCRVTTEDPARSFQPDTGRIEVFRSGEGMGIRLDNASAFQGAVISPHYDSLLVKVIAHGKDHPTAATKMSRALAEFRVRGVKTNIAFLQNVLNNQQFLAGTVDTQFIDENPELFQLRPAQNRAQKLLHYLGHVMVNGPTTPIPVKASPSPTDPVVPAVPIGPPPAGFRDILLREGPEGFARAVRNHPGLLLMDTTFRDAHQSLLATRVRTHDLKKIAPYVAHNFSKLFSMENWGGATFDVAMRFLYECPWRRLQELRELIPNIPFQMLLRGANAVGYTNYPDNVVFKFCEVAKENGMDVFRVFDSLNYLPNMLLGMEAAGSAGGVVEAAISYTGDVADPSRTKYSLQYYMGLAEELVRAGTHILCIKDMAGLLKPTACTMLVSSLRDRFPDLPLHIHTHDTSGAGVAAMLACAQAGADVVDVAADSMSGMTSQPSMGALVACTRGTPLDTEVPMERVFDYSEYWEGARGLYAAFDCTATMKSGNSDVYENEIPGGQYTNLHFQAHSMGLGSKFKEVKKAYVEANQMLGDLIKVTPSSKIVGDLAQFMVQNGLSRAEAEAQAEELSFPRSVVEFLQGYIGVPHGGFPEPFRSKVLKDLPRVEGRPGASLPPLDLQALEKELVDRHGEEVTPEDVLSAAMYPDVFAHFKDFTATFGPLDSLNTRLFLQGPKIAEEFEVELERGKTLHIKALAVSDLNRAGQRQVFFELNGQLRSILVKDTQAMKEMHFHPKALKDVKGQIGAPMPGKVIDIKVVAGAKVAKGQPLCVLSAMKMETVVTSPMEGTVRKVHVTKDMTLEGDDLILEIE	soluble
MLKIISANVNGIRSAYKKGFYEYIAASGADIVCVQELKAQEADLSADMKNPHGMHGHWHCAEKRGYSGVAVYSKRKPDNVQIGMGIEEFDREGRFVRCDFGRLSVISLYLPSGSSAEERQQVKYRFLDAFYPMLEAMKNEGRDIVVCGDWNIAHQNIDLKNWKGNQKNSGFLPEEREWIGKVIHKLGWTDMWRTLYPDVPGYTWWSNRGQAYAKDVGWRIDYQMVTPELAAKAVSAHVYKDEKFSDHAPLVVEYDYAAE	soluble
MLKILKRIVQDVTAASDLKEALGILVQRINTAINAEAVSVYLIDNKNAEYVLIATEGLNKQAEFRVRIALDCGLIGLIGRREEPINIENAPSHPDFYHNPLIGEDHLNAFLGVPIIQHRKLYGVLVVQQLEQRYFDDAEESFLITLAAQLGGIIAHAEATGELAELTQ	not soluble
MLKISNSVTLQEWEIQLTPIRAQGNGGQNVNKVATAIHLRFDIHHSSLPEFYKERLLALSDSRITKDGVVIIKAQQFRTQEKNKEDALNRLQELIKAAALQDKKRIKTKPTRASQRRRLDSKNKQGAKKQQRKKVLYLEHHHHHH	not soluble
MLKKFFLPDEFVKNIFHITPEKLKERNVKGIITDLDNTLVEWDRPNATPRLIEWFEEMKEHGIKVTIVSNNNERRVKLFSEPLGIPFIYKARKPMGKAFNRAVRNMELKKEDCVVIGDQLLTDVLGGNRNGYHTILVVPVASSDGFITRFNRQVERRILSALKRKGHIQWEELEHHHHHH	soluble
MLKKRKLGRRIGEIQAGEKLVFQAAIEDKDLLLYLGLTDDANPLYIQHDYASQTPFGKPVVPPVMLTGMITSAVSKYLPGPGSYITRQDLRFLRPVYHYETLEFLLEVADVDEAGHCVTLSVMATRGAETVLDGTLSVCPPHTLPRLDGRVLENF	not soluble
MLKLFSAFRKNKIWDFNGGIHPPEMKTQSNGTPLRQVPLAQRFVIPLKQHIGAEGELCVSVGDKVLRGQPLTRGRGKMLPVHAPTSGTVTAIAPHSTAHPSALAELSVIIDADGEDCWIPRDGWADYRTRSREELIERIHQFGVAGLGGAGFPTGVKLQGGGDKIETLIINAAECEPYITADDRLMQDCAAQVVEGIRILAHILQPREILIGIEDNKPQAISMLRAVLADSNDISLRVIPTKYPSGGAKQLTYILTGKQVPHGGRSSDIGVLMQNVGTAYAVKRAVIDGEPITERVVTLTGEAIARPGNVWARLGTPVRHLLNDAGFCPSADQMVIMGGPLMGFTLPWLDVPVVKITNCLLAPSANELGEPQEEQSCIRCSACADACPADLLPQQLYWFSKGQQHDKATTHNIADCIECGACAWVCPSNIPLVQYFRQEKAEIAAIRQEEKRAAEAKARFEARQARLEREKAARLERHKSAAVQPAAKDKDAIAAALARVKEKQAQATQPIVIKAGERPDNSAIIAAREARKAQARAKQAELQQTNDAATVADPRKTAVEAAIARAKARKLEQQQANAEPEQQVDPRKAAVEAAIARAKARKLEQQQANAEPEEQVDPRKAAVEAAIARAKARKLEQQQANAEPEQQVDPRKAAVEAAIARAKARKREQQPANAEPEEQVDPRKAAVEAAIARAKARKLEQQQANAVPEEQVDPRKAAVAAAIARAQAKKAAQQKVVNEDLEHHHHHH	soluble
MLKPLGDRVVIELVQAEEKTASGIVLPDTAKEKPQEGKVIAVGTGRVLENGERVALEVAAGDLIIFSKYAGTEVKYEGTDYLILRESDILAVIG	not soluble
MLKQSMHSFVLLYPNVLLEGWNVEKVSERYEGEKWGTFWFQVVTPTGMFRVKEFFLDIMEPVFPDSCISQAKGDCFQYKGLVYWKGINYKGKESYVTSIWKTQVEISVDHGYVNQDEMERFLFELQPVNMELGKTILHTSFHLLSFQAKRSEMGEIGRCREWNAPDDVSYVNLLIHEKLNWKLESVGFGNDETQYVYWDEVNKLYALWVCRHKNKAYYPISSWTMNYGPKQIINGLEFYSHPNRGTVVYEDLGNEQIAYVFRGNPCTNFEQVKELFACL	not soluble
MLKSEDADYEKAMKDKVGTGPQEYLKQLSDSLVKNQSAASVEVVSGATHSSDAFINYANQLIQAAQKADTTTISINNLAKMEDGTYKLEEQNYAHGYRVVFSMDVKDGKITKSDYNYVDKDGKLKSDDADYEKNMKAKSGTGPKEYIPALNKSLVEKQDVAAVDTVSGATNSSNQFKIYAAQLQNAAQNGNTDTIKVYNLVEAELEHHHHHH	soluble
MLKTLAVANYRSINKLVIPLGRLNLVTGANGSGKSNLYRALRLLAETAQGGVVNALAKEGGLESTYWAGPEQISRRMSQGEVPIQGGPRKAARRLQLGFAGEDFGYAISLGLPDSSGHFMLPGHSSPIASRFTLDPWIKRESIWGGPLYRSASALVDRQGPMIRARAGRQWEVLAQHTSSGDSLFDRVGNLSSSPEVLHLREQIRGWRFYDHLRTDSQAPARRPQLGTRTPVLHHDGRDLAAALQTIIEVGDQQALHETISDAFPESRLEIDAVPGGLFGVQFYQEGLLRPLSAAELSDGTLRYLLLVAALLTPRPPTLMVLNEPETSLHPDLLPALARLIIRASQQCQVWVVSHARRLIAALQQDPECNCIVLEKQLGQTGIVGQRMLDEPAWNWPDLEHHHHHH	not soluble
MLKYNIRGENIEVTEPIRDYVEKKIDKLERYFTETPDANVHVNLKVYSDKNAKVEVTIPLPNLVLRAEETSGDLYASIDLIVDKLERQIRKHKTKVNRKFRDKGAERDYFAYSDVNGSTPPEENEGDFDLEIVRTKQFSLKPMDSEEAVLQMNLLGHSFYVYTDAETNGTNIVYSRKDGKYGLIETNLEHHHHHH	soluble
